Results: patent US6613875B1, “Cyclic peptide tube” (The Scripps Research Institute, priority 1993, dated 2003)
Square brackets hold non-standard residues; d marks the D form. Peptide text beside a SMILES is read from it. dNMeA = CN[C@H](C)C(=O)O

Legend:
[1] = pH dependent solubility of peptide subunit in aqueous media; type: physicochemical
Text: FIG. 17 illustrates the hydrogen bonding of molecular tubes constructed with cyclic peptide 1.
The design, synthesis, and characterization of a molecular tube, i.e., a cyclic peptide tube or “organic nanotube,” is described. A rationally designed 24-membered ring peptide structure can be constructed and shown to undergo a proton-triggered self-assembly to produce tubular structures hundreds of nanometers long, with internal van der Waals diameter of 7 to 8 Å. Formation of tubular structures is established by Electron Microscopy (EM), electron diffraction studies, and Fourier Transformed Infrared Spectroscopy (FT-IR). A three-dimensional model of the molecular tube consistent with the experimental observations is also presented. As opposed to the recently identified closed concentric graphite tubes, cyclic peptide tubes, by virtue of the cyclic nature of their components, are open ended structures and have uniform shape and internal diameter, e.g., Tsang, S. C. et al. (1993), Nature 362, 520-522 and Ajayan, P. M. et al. (1993), Nature 362, 522-525 (1993). The proton-triggered self-assembly process described herein is a highly convergent approach in which numerous ring-shaped peptide subunits interact through an extensive network of hydrogen bonds to form molecular tube structures. Example I features an eight-residue cyclic peptide with the following sequence: cyclo[-(D-Ala-Glu-D-Ala-Gln)2-]. (Sequence No.: 1) In designing the subunit, it is shown that cyclic peptides with an even number of alternating D- and L-amino acids can adopt or sample a low energy ring-shaped flat conformation in which all backbone amide functionalities lie approximately perpendicular to the plane of the structure. In this conformation, subunits can stack in an anti-parallel fashion and participate in backbone-backbone intermolecular hydrogen bonding to furnish a contiguous β-sheet structure. Moreover, because of the alternating D- and L-amino acid sequence, peptide side chains must \necessarily lie on the exterior of the ensemble thereby creating the desired hollow tubular core structure. […]

[2] = Proton transport (collapse of pH gradient) in vesicles with entrapped 5(6)-carboxyfluorescein; type: biochemical; details: vesicles pH 6.5 inside, pH 5.5 outside; 25° C.; equal molar amounts of channel forming compounds
Text: The proton efflux is expressed in terms of the fractional change in the fluorescence intensity of vesicle entrapped 5(6)-carboxyfluorescein as a function of time (sampling time was at 0.3 seconds interval). Equal molar amounts of channel forming compounds were used in each experiment to allow direct comparisons of channel-mediated proton transport activity. The amount of added channel forming compounds in each experiment ranged from of 2 to 20 nmoles corresponding to approximately 150 channels per liposome for the lowest concentrations to 1100 channels per liposome for the highest amount of added compounds.
Formation of transmembrane channels was also inferred from its highly efficient proton transport activity. Vesicles were prepared having pH 6.5 inside and pH 5.5 in the outside bulk solution. The collapse of the imposed pH gradient in these vesicles, upon formation of the putative transmembrane channel structure, was studied by monitoring the fluorescence intensity of an entrapped pH-sensitive dye. (V.E. Carmichael et al, in J.Am. Chem. Soc. (1989), vol. 111, pages 767-769). […] Unilamellar vesicles were prepared by the reverse-phase evaporation using DPPC, OPPC, cholestrol in the ratio of 1:1:2 in a solution containing 5(6)-carboxyfluorescein (20 mM in phosphate/saline buffer: 137 mM NaCl, 2.6 mM KCl, 6.4 mM Na2HPO4, 1.4 mM KH2PO4, pH 6.5) according to the method of F. Szoka et al. in Proc. Natl. Acad. Sci. USA (1978), vol. 75, pages 4194-4198. […] Vesicles formed in this way are approximately 150 nanometer in diameter as determined by electron microscopy. […] To the cuvett, through an injector port, […] of the channel forming compounds in DMSO was added with continuous fluorescence monitoring at 520 nm (excitation at 470 nm). The observed data were then normalized for comparison into the fractional change in fluorescence ((I0−It)/(I0−I∞)) (V. E. Carmichael et al, in J.Am. Chem. Soc. (1989), vol. 111, pages 767-769)). […]

[3] = Dimerization (self-assembly) of N-methylated cyclic peptide in nonpolar solvents, 1H NMR / van't Hoff; type: physicochemical
Text: Variable temperature NMR experiments in DMSO indicate cis-trans conformational activation barriers on the order of 16 to 17 kcal.mol^−1. However, in nonpolar solvents such as carbon tetrachloride (CCl4) or deuterochloroform (CDCl3) the peptide exists in an all trans flat-ring-shaped backbone conformation which is in dynamic equilibrium with the expected dimeric cylindrical ensemble. […] The preponderance of a flat ring-shaped backbone conformation is also indicated by the observed 7.5 Hz JNH-CaH coupling constant. Intermolecular hydrogen bonding interactions producing the stacked dimeric ensemble are signified by the expected downfield shift of the phenylalanine N—H backbone resonance from 6.98 to 8.73 ppm (JNH-CaH=8.5 Hz) and are unequivocally established by the observed exchange and NOE cross peaks in its ROESY spectrum.
Formation of a tight hydrogen bonded ensemble with an average intersubunit N—O distance of 2.95 Å is also evidenced by the appearance of an N—H stretching band in the infrared spectrum at 3309 cm^−1.
[…] […] The Ka(CCl4) reported was performed in a mixture of 84% CCl4 and 16% CDCl3 for solubility reasons.
Variable temperature studies (van't Hoff plots) establish the following thermodynamic parameters for the dimerization process in chloroform: ΔCp=−203.1 cal.K^−1.mol^−1, ΔH^0298=−11.0 kcal.mol^−1, and ΔS^0298=−23.7 e.u. which clearly supports the expected enthalpic contribution of intermolecular hydrogen bonding interactions (0.5 to 0.7 kcal.mol^−1 for each hydrogen bonding interaction) as the major driving force in the self-assembly process.
The above experiments indicate that the peptide subunit adopts a flat ring-shaped solution conformation which is energetically favored toward ring stacking and intermolecular hydrogen bonding interactions by 4.0 to 5.6 kcal.mol^−1, depending on the solvent employed. It follows then that an additive gain in free energy of stabilization is to be expected as the number of ring-stacking interactions are increased. This is particularly relevant to the self-assembled nanotubes and to the transmembrane ion channel structures that can be produced.

[4] = Incorporation of peptide subunit into lipid bilayers of large unilamellar vesicles (absorption and fluorescence spectroscopy); type: physicochemical; details: aqueous liposomal suspensions
Text: Incorporation of the peptide subunit into lipid bilayers using large unilamellar vesicles has been established by absorption and fluorescence spectroscopy. Formation of the hydrogen-bonded transmembrane channel structure in phosphatidylcholin liposomes has been supported by FT-IR spectroscopy (FIG. 24). The observed amide-I band at 1624 cm^−1 is not only similar to the carbonyl stretching frequencies found in other nanotube structures disclosed herein, but is also consistent with the infrared spectrum of gramicidin A in similar lipid bilayers. (E. Nabedryk et al in Biophys. J. (1982), vol. 38, pages 243-249. Furthermore, the observed N-H stretching frequency at 3272 cm^−1 strongly supports the formation of a tight network of hydrogen bonds with an average intersubunit distance of 4.7 Å.
The second control peptide cyclo[-(^MeN-D-Ala-Phe)4-] which has the desirable hydrophobic surface characteristics but lacks the propensity for participating in extended hydrogen bonding network, was also designed and tested for ion transport activity. The peptide design incorporates a novel N-methylation strategy on one face of the ring structure which predisposes the subunit toward a dimeric cylindrical structure (Ghadiri, M. R., Kobayashi, K., Granja, J. R., Chadha, R., and McRee, D. E. manuscript in preparation). Such a dimeric cylindrical ensemble is approximately 10 Å thick and can not span the lipid bilayer.
The ten-residue peptide subunit employed in the present study, cyclo[-Gln-(D-Leu-Trp)4-D-Leu-], is made up of largely tryptophan and leucine residues to favor its partitioning into and self-assembly in lipid bilayers. It was synthesized on solid support^5 and characterized by ^1H NMR spectroscopy and mass spectrometry. […] This has been supported by absorption and fluorescence spectrophotometry and gel permeation studies. Formation of a hydrogen bonded transmembrane channel structure in phosphatidylcholin liposomes has been established by FT-IR spectroscopy^6. […]

solubility in aqueous media ([1]; acidic / low pH) | solubility in aqueous media ([1]; acidic / low pH, listed as cyclo[-(D-Ala-Glu-D-Ala-Gln)2-]) | solubility in aqueous media ([1]; high (alkaline) pH) | Compound | apparent ion (proton) transport activity [2] | association constant Ka(CCl4) of dimerization ([3]; 293 K, mixture of 84% CCl4 and 16% CDCl3, lower limit (included water)) [M⁻¹] | ΔCp of dimerization ([3]; chloroform, van't Hoff plots) [cal.K^−1.mol^−1] | ΔH^0298 of dimerization ([3]; chloroform, van't Hoff plots) [kcal/mol] | ΔS^0298 of dimerization ([3]; chloroform, van't Hoff plots) [e.u.] | association constant Ka(CDCl3) of dimerization ([3]; water rigorously excluded (4 Å molecular sieves)) [M⁻¹] | partitioning / incorporation into lipid bilayers [4]
lower water solubility | lower solubility | high water solubility | C[C@H]1NC(=O)[C@H](CCC(N)=O)NC(=O)[C@@H](C)NC(=O)[C@H](CCC(=O)O)NC(=O)[C@@H](C)NC(=O)[C@H](CCC(N)=O)NC(=O)[C@@H](C)NC(=O)[C@H](CCC(=O)O)NC1=O [cyclic peptide 1, cyclo[-(Gln-D-Ala-Glu-D-Ala)2-]] (cyclo(Q[dA]E[dA]Q[dA]E[dA])) | – | – | – | – | – | – | –
– | – | – | cyclo[-(Gln-D-Leu)4-] (cyclo(Q[dL]Q[dL]Q[dL]Q[dL]); SMILES CC(C)C[C@H]1NC(=O)[C@H](CCC(N)=O)NC(=O)[C@@H](CC(C)C)NC(=O)[C@H](CCC(N)=O)NC(=O)[C@@H](CC(C)C)NC(=O)[C@H](CCC(N)=O)NC(=O)[C@@H](CC(C)C)NC(=O)[C@H](CCC(N)=O)NC1=O) [cyclo[-(Gln-D-Leu)4], control peptide lacking surface characteristics for partitioning into lipid bilayers] | does not display any ion transport activity | – | – | – | – | – | –
– | – | – | cyclo[-(L-Phe-D-^Me NAla)4-] (cyclo(F[dNMeA]F[dNMeA]F[dNMeA]F[dNMeA]); SMILES C[C@@H]1C(=O)N[C@@H](Cc2ccccc2)C(=O)N(C)[C@H](C)C(=O)N[C@@H](Cc2ccccc2)C(=O)N(C)[C@H](C)C(=O)N[C@@H](Cc2ccccc2)C(=O)N(C)[C@H](C)C(=O)N[C@@H](Cc2ccccc2)C(=O)N1C) [N-methylated cap subunit / second control peptide, forms dimeric cylindrical structure] | does not promote proton transport activity | 14000 | −203.1 | -11.0 | −23.7 | 2540 | partition effectively
